# According to publication PMC11098746 (2024):
# B1: 87 (protein)
# chain: LKKGNGDFIKKNGVFFQIDRDMNEPPYSVINVFYTESLLDDNLLNQLEKERKMGKYKTQNYFRKSLDNNKYFMEYSRKQKEQLEFLLE
# modifications: bait human Fc-tagged dimer
# B2: 30 (protein)
# chain: QDNKNKVEETHEEQGEMTQEEKDEIYSEFVDYDLNKDGLIDAEEIVVTLKNMKKADFINFFNKVDLDSSGTISIDEYMLFINSN
# modifications: bait human Fc-tagged dimer
# B3: 2 (protein)
# chain: DFFLRYRTGFIRSRLETYIGNSDVRYNKAFINNRLLNEHAHCDAWSEWSACSKTCDYGIKIRVKISTDQTKSKACSNIAESTICHEHICPRTFEEAEETYLHNKEKEKKKKFRTT
# modifications: bait human Fc-tagged dimer
# B4: 83 (protein)
# chain: NKNLKCNFYYNNNNLATYVIKHNRFLSEYQSNFLGGGYSAALKLVNSKKSGTNVNTKYNSENTNTNNNIPESSSTYTNTRLAANNAATTSTTKVTDNNKANIKLTGNNAATINTNSAENTAATKKVTENVITNQILTGNNNAATNTATTEHNNNINTNTNSAENTAATKKVTENVITNQILTGNNNAATNTATTEHNNNINTNTNSADNSNTNTNLADNTATTKKLTDNINTAQNLATSTNTATVSTDNNNINTKPIDNNNADIKSTDNYNTGTKETDNKNTDIKATDNNNIATTTDNTNTNVISTDNSKTNVISTDNSKTNTISTDNDNADTILTDNDNNADIILTDNNNADTISTDNDNADTKATDNNNNANTKATDNNNAKIISPDNNNAKTTSTDNNNNANTKATDNNNAKTISNDNNNAKTISTDNNNAKTISNDNNNANTISTDNNNNNANQYVFANNYNEATSDDELNKDSCDYSEEKENIKSMINAYLDKLDLETVRKIHSDISTCIEKKNNPRNQITHLNNLKNMYNIIKFIVVIYIAFNWAEVIYKYVGKLILAFALYMLIN
# modifications: bait human Fc-tagged dimer
# B5: 45 (protein)
# chain: GEEKLTKFDPVMIKEGELFGEVSYDCEYSGFLEIENDDILYYCFFVGEDDHNGLLLRKFHMDDMVWGIPMEVLITRKKINLYILTVDYILSKLILIYSFDEKIRITVFNNYMEESVMSEKISINYEILYKANMISYITYFYKNKKSLCVCGMNRNENILCTFSFDYGLTMKDDHTIEFFLKKKIPLGHYKMQVTFKETEVYFNLYNDLNEANFYELKCVKKQDEYICDIMNKIRETQEYNYKRYTYPSSEHNKYYNDHHNKQPQGKQGQQGGAPLPNLGEEENNFIYKHIVRNKYFQMIVFQKDQKCYLAWSFNSLNINDEITKEISSVPCSNVASYYRQERLIVTLKKNQLGSRNHFFLIYEKLTEKGVGCEFGVGGSLYVTKTFMNNACDMDINNMNVATTNYDEINFALIIPLSFQLNYATCFIWEENVDNNEERSSLYYLEEYTNEKEDIKVYTFYFYKYILIYKNFKKSTCTFESKNNEKLYISFRGDTYYKEYNCNILLDSCDFFLHTQSKINIAYDDDVWQVSEELYDGFVMYNGAYVSLYDVLSRSNAHGLIYIDGKENNAAINLNNIKNNNNNNNNNNNNNNAANNNNIANNANSNNAFGEHEKVITIIIPYGIPSTRTIKIEFLNKQNNEEKRWAYLRLQKNEYIMKKVIGINSADIFDLSYKYYKYNQEKIKFILNDFSETTYLGFICQTKEEIKKSLCTISLVDHSHKNMAINNLFKTNNHILPFLYDQSPPRKIQPYNQIISEFRFVLFKNFHLFLQENKINYILLKCMCSSSSSYINTQKNIELSYLITNEQVSHDFIHTPGILIRPRTNIAHNDYQKNNKGNHKGNNKANNKANDKDSNNNANNNANKNGNNHNDNNNNNQNKDIDINSNYAIHNNNEKVKRTKKKINDAPYDKQDEELPSYDFNDLLHEKKNGASVFDFNFVLFLFICITFF
# modifications: bait human Fc-tagged dimer
# B6: 74 (protein)
# chain: YNLNNDLSKNNNFALNTYVRKDDVEDDSKNEIVDNIQKMVDDFSDDIGFVKTSMREVLLDTEASLEEVSDHVVQNIAKYSLTIEEKLNLFDGLLEEFIENNKGLISNLAKRQQKLKGDKIKKVCDLILKKLKKLENVNKLIKYKIILKYGNKDNKKEMIQTLKNEEGLSDDFKNNLANYETEQNNDDIKEIELVNFISTNYDKFVVNLEDLNKELLKDLNMALS
# modifications: bait human Fc-tagged dimer
# Molecular target: FGFR4 ectodomain (Homo sapiens, UniProt P22455)
# Assay: AVEXIS normalised luminescence
row,Binder,binding score
1,B1,1.61
2,B2,1.55
3,B3,1.02
4,B4,1.24
5,B5,1.05
6,B6,1.05
